Series [1] deals with His-GIV-CT (aa 1660-1870), wild-type, phosphorylated in vitro by recombinant EGFR kinase.
Series [2] has as its system His-GIV-CT Y1798F, phosphorylated in vitro by recombinant EGFR kinase.
The subject of series [3] is His-GIV-CT Y1764F, phosphorylated in vitro by recombinant EGFR kinase.

His-GIV-CT (aa 1660-1870), wild-type, phosphorylated in vitro by recombinant EGFR kinase, sequence (chain, as listed by the source): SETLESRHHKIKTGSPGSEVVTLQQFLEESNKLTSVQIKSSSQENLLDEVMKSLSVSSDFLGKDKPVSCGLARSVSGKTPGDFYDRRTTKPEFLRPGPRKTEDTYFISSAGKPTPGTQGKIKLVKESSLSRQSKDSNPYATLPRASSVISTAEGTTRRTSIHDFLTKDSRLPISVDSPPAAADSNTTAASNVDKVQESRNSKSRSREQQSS
His-GIV-CT Y1764F, phosphorylated in vitro by recombinant EGFR kinase, sequence (chain, as listed by the source Y1764F): as the sequence (chain, as listed by the source) above, with Y105F counted along it
His-GIV-CT Y1798F, phosphorylated in vitro by recombinant EGFR kinase, sequence (chain, as listed by the source Y1798F): as the sequence (chain, as listed by the source) above, with Y139F counted along it

In the case of “GST-SHP-1 (full length, wild-type, human)”, the “in vitro phosphatase assay: residual tyrosine phosphorylation of His-GIV-CT” value in series [1] is on record as “SHP-1 WT, but not SHP-1 CS dephosphorylated tyrosine-phosphorylated His-GIV-CT in a dose-dependent manner”.

In the case of “GST-SHP-1 C453S (catalytically inactive)”, in series [1], the “in vitro phosphatase assay: residual tyrosine phosphorylation of His-GIV-CT” value is listed as “SHP-1 WT, but not SHP-1 CS dephosphorylated tyrosine-phosphorylated His-GIV-CT in a dose-dependent manner”.

Turning to His-SHP-1 (human, recombinant), the “in vitro phosphatase assay: residual tyrosine phosphorylation of His-GIV-CT” value in series [1] was “SHP-1 efficiently dephosphorylated GIV in a dose-dependent manner”. Moreover, the “in vitro phosphatase assay: residual tyrosine phosphorylation of His-GIV-CT mutants” value in series [2] and in series [3] was “SHP-1 efficiently dephosphorylated both mutants” in each case.

The values above are taken from patent publication US20140234872.
